T1: Lon protease (Caulobacter crescentus) (Caulobacter crescentus, UniProt P0CAW0 1-799)
T1 sequence (looked up): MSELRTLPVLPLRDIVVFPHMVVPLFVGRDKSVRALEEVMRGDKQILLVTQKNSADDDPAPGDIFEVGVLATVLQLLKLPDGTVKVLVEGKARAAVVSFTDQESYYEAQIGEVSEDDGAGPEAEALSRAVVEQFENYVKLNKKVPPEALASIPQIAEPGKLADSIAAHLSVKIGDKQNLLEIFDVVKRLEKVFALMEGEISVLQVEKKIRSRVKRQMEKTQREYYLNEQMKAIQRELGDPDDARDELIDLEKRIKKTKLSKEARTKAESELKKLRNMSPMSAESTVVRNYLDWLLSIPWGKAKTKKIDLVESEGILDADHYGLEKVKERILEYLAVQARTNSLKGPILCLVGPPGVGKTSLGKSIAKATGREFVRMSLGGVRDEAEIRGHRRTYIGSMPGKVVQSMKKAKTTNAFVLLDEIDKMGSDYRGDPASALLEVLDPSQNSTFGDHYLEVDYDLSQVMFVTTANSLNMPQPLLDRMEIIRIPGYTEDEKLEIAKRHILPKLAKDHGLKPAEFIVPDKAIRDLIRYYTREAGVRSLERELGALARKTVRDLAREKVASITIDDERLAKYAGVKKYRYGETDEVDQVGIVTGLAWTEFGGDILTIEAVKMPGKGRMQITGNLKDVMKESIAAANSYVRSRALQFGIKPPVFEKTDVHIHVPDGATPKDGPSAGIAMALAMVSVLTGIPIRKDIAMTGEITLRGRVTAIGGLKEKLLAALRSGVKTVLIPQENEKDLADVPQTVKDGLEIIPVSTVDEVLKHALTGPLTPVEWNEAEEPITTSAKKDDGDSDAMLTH


Target: T1, Lon protease (Caulobacter crescentus)
Test: filtration-spin binding assay

binding result	Binder
binds	DnaA fragment 143-490 (domains III+IV) (domain or fragment, Caulobacter crescentus, UniProt P0CAU4 143-490, looked up) SPRTQGLQERFTFETFVPGPANEFAHAVARRIANWADGHFNPVLFHGPYGFGKTHLLNALAWEAMRNAPEKRVVYLTAERFLSTFVRAVMDRQTAAFKEELRAADLLIIDDVHFIAGKQSTQEELFHTLTALVGEGGRVVFSADRPPSAMTEMDAHLRSHLSAGLVCGLEPADRNLRLGILERKIQTLGAAHGFEPSIRPEVMQFLADRFTDSVRELEGALNTLSARAGEGLSRMTLDEVQAILRPHLRSGEKRITIDDIQKATAEHYGMKQADLLSERRNRAVARPRQAAMWLAKQLTTRSLPDIGRRFGGRDHTTVLHAVRRIEALRAEDSALSHDLETLTRKLRG
binds	DnaA fragment 143-391 (AAA+ ATPase domain III) (domain or fragment, Caulobacter crescentus, UniProt P0CAU4 143-391, looked up) SPRTQGLQERFTFETFVPGPANEFAHAVARRIANWADGHFNPVLFHGPYGFGKTHLLNALAWEAMRNAPEKRVVYLTAERFLSTFVRAVMDRQTAAFKEELRAADLLIIDDVHFIAGKQSTQEELFHTLTALVGEGGRVVFSADRPPSAMTEMDAHLRSHLSAGLVCGLEPADRNLRLGILERKIQTLGAAHGFEPSIRPEVMQFLADRFTDSVRELEGALNTLSARAGEGLSRMTLDEVQAILRPHLR
binds	DnaA fragment 117-391 (linker domain II and AAA+ ATPase domain III) (domain or fragment, Caulobacter crescentus, UniProt P0CAU4 117-391, looked up) AVAAEPIEIVLPVSTDAPTVVAPSAKSPRTQGLQERFTFETFVPGPANEFAHAVARRIANWADGHFNPVLFHGPYGFGKTHLLNALAWEAMRNAPEKRVVYLTAERFLSTFVRAVMDRQTAAFKEELRAADLLIIDDVHFIAGKQSTQEELFHTLTALVGEGGRVVFSADRPPSAMTEMDAHLRSHLSAGLVCGLEPADRNLRLGILERKIQTLGAAHGFEPSIRPEVMQFLADRFTDSVRELEGALNTLSARAGEGLSRMTLDEVQAILRPHLR

From article doi:10.1101/301655 (bioRxiv, 2018)
